Reference: patent US20260217779

Columns and labels:
[1] = molecular target: T1, hCXCL11.0039-G1T4k.one//VHn-G1T4h.one.H435R
T1 chain 1: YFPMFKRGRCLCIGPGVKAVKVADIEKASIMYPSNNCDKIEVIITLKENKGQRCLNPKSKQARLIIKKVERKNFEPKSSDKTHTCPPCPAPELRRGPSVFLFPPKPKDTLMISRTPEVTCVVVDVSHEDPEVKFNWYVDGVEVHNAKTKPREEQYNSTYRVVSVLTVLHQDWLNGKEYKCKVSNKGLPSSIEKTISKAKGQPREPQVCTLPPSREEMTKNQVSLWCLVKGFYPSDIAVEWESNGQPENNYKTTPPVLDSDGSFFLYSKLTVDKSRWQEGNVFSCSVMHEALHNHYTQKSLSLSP
T1 chain 2: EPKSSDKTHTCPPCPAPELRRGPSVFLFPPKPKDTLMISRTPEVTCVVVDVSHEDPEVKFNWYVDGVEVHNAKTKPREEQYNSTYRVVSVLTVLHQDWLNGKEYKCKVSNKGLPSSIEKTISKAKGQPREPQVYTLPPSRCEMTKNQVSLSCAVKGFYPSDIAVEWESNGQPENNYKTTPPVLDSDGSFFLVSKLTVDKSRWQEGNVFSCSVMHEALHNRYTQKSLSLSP

[2] = molecular target: T2, hCXCL11.0025-G1T4k.one//VHn-G1T4h.one.H435R
T2 chain 1: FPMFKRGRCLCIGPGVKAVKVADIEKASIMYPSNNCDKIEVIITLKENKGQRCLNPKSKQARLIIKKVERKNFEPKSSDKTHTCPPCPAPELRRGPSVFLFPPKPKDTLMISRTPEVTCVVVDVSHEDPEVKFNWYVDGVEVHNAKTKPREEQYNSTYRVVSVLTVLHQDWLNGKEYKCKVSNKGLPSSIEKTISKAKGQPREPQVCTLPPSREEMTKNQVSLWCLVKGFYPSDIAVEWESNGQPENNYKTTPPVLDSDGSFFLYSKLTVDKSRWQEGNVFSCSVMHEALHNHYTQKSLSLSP
T2 chain 2: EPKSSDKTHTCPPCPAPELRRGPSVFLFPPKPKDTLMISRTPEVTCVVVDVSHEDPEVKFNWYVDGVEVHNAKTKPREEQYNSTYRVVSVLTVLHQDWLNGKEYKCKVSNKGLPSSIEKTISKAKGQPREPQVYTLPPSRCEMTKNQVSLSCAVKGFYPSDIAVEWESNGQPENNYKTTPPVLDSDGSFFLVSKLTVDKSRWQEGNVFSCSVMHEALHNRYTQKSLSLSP

[3] = molecular target: T3, hCXCL11.0037-G1T4k.one//VHn-G1T4h.one.H435R
T3 chain 1: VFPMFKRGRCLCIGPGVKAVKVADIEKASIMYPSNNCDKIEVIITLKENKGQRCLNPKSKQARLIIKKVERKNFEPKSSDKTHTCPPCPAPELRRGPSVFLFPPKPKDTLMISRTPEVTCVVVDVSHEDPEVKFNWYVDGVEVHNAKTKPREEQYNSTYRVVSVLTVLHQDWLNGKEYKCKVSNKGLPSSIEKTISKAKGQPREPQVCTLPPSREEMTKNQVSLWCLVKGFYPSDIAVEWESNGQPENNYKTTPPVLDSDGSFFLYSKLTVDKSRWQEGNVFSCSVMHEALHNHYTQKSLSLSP
T3 chain 2: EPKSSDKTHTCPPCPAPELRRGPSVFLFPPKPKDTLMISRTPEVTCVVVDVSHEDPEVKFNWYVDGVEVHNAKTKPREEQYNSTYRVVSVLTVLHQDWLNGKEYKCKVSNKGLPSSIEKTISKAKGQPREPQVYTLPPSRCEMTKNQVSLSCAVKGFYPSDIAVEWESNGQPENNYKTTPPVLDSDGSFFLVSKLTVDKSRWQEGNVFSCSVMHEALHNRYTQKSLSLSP

[4] = molecular target: T4, hITIP0031-G1T4k.one//VHn-G1T4h.one.H435R
T4 chain 1: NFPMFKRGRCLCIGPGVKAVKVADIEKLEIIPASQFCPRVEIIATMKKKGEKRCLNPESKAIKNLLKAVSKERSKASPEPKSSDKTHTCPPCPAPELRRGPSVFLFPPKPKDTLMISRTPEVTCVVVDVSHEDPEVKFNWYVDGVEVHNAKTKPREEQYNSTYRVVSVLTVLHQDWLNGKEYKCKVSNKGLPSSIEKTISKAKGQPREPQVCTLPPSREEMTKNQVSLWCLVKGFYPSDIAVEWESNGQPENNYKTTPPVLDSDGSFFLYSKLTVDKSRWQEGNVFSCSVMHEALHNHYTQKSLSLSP
T4 chain 2: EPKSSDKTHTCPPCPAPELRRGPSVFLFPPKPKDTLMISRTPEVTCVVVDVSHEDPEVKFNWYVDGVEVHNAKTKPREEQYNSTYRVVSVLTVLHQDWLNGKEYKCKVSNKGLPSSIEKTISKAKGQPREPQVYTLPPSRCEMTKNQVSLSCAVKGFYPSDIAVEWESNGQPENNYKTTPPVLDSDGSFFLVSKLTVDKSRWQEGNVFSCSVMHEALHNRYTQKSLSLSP

[5] = molecular target: T5, hITIP0022-G1T4k.one//VHn-G1T4h.one.H435R
T5 chain 1: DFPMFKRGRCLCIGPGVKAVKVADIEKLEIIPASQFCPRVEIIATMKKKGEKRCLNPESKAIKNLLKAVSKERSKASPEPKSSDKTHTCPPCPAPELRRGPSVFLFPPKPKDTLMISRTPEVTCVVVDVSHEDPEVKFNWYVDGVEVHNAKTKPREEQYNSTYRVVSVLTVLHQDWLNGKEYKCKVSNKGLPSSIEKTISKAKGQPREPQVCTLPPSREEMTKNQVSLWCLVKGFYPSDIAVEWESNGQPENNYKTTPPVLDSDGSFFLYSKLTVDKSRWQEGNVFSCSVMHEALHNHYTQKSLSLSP
T5 chain 2: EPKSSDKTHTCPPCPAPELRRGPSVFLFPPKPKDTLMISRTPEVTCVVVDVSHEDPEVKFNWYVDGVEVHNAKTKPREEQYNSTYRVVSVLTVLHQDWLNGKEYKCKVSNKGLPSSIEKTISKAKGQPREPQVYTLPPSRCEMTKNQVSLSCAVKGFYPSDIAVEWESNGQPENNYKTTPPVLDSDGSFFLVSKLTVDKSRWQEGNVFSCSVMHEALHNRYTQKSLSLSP

[6] = molecular target: T6, hCXCL11.0033-G1T4k.one//VHn-G1T4h.one.H435R
T6 chain 1: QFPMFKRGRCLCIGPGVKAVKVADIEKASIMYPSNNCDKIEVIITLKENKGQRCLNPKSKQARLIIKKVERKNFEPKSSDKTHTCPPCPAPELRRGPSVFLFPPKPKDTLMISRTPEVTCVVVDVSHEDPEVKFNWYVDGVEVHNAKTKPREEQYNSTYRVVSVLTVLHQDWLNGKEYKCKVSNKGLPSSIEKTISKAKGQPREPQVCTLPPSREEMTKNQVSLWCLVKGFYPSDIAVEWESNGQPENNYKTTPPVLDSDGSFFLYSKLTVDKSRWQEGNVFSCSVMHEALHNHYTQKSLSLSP
T6 chain 2: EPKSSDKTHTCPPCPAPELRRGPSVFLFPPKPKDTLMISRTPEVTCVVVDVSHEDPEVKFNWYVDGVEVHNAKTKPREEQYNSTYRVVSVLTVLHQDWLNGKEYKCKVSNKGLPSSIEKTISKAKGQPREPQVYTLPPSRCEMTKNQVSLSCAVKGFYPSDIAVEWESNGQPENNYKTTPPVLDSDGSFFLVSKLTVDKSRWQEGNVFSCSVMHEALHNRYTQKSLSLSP

[7] = molecular target: T7, hITIP0023-G1T4k.one//VHn-G1T4h.one.H435R
T7 chain 1: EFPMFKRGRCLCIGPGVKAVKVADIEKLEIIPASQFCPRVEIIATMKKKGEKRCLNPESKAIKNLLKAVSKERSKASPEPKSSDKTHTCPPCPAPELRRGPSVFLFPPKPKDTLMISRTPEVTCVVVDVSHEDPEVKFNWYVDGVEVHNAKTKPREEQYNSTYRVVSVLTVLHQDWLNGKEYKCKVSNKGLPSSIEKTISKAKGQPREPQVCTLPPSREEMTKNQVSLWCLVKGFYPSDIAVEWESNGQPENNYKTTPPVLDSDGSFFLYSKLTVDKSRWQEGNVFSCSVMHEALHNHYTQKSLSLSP
T7 chain 2: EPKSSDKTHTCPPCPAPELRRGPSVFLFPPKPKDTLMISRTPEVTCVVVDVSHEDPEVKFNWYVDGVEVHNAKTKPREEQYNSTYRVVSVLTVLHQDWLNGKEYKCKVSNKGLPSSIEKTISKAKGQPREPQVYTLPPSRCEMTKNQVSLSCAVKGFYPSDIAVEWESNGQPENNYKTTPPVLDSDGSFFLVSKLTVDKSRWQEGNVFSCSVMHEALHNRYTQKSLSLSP

[8] = molecular target: T8, hITIP0033-G1T4k.one//VHn-G1T4h.one.H435R
T8 chain 1: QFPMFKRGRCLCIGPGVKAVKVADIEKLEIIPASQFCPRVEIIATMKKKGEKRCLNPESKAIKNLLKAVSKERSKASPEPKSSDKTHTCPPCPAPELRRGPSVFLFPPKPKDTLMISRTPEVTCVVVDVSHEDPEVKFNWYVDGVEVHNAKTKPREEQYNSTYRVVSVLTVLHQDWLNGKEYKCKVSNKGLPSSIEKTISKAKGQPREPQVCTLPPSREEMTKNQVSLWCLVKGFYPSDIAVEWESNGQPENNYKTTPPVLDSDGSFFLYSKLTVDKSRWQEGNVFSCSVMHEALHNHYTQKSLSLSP
T8 chain 2: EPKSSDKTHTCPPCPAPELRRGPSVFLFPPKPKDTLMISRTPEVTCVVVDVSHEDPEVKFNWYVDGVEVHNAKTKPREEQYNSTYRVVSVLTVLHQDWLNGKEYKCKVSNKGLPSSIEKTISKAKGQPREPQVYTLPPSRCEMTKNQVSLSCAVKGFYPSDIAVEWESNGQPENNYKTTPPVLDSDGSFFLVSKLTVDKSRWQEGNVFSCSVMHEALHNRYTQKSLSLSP

B1: human dipeptidyl peptidase IV (human DPPIV, hDPPIV) (Biolegend, 764102) (protein)
chain: NKGTDDATADSRKTYTLTDYLKNTYRLKLYSLRWISDHEYLYKQENNILVFNAEYGNSSVFLENSTFDEFGHSINDYSISPDGQFILLEYNYVKQWRHSYTASYDIYDLNKRQLITEERIPNNTQWVTWSPVGHKLAYVWNNDIYVKIEPNLPSYRITWTGKEDIIYNGITDWVYEEEVFSAYSALWWSPNGTFLAYAQFNDTEVPLIEYSFYSDESLQYPKTVRVPYPKAGAVNPTVKFFVVNTDSLSSVTNATSIQITAPASMLIGDHYLCDVTWATQERISLQWLRRIQNYSVMDICDYDESSGRWNCLVARQHIEMSTTGWVGRFRPSEPHFTLDGNSFYKIISNEEGYRHICYFQIDKKDCTFITKGTWEVIGIEALTSDYLYYISNEYKGMPGGRNLYKIQLSDYTKVTCLSCELNPERCQYYSVSFSKEAKYYQLRCSGPGLPLYTLHSSVNDKGLRVLEDNSALDKMLQNVQMPSKKLDFIILNETKFWYQMILPPHFDKSKKYPLLLDVYAGPCSQKADTVFRLNWATYLASTENIIVASFDGRGSGYQGDKIMHAINRRLGTFEVEDQIEAARQFSKMGFVDNKRIAIWGWSYGGYVTSMVLGSGSGVFKCGIAVAPVSRWEYYDSVYTERYMGLPTPEDNLDHYRNSTVMSRAENFKQVEYLLIHGTADDNVHFQQSAQISKALVDVGVDFQAMWYTDEDHGIASSTAHQHIYTHMSHFIKQCFSLP
cleavage by hDPPIV (LC/MS mass) [1]: showed no mass change suggestive of peptide bond cleavage by hDPPIV treatment | cleavage by hDPPIV (LC/MS mass) [2]: showed no mass change suggestive of peptide bond cleavage by hDPPIV treatment | cleavage by hDPPIV (LC/MS mass) [3]: showed no mass change suggestive of peptide bond cleavage by hDPPIV treatment | cleavage by hDPPIV (LC/MS mass) [4]: showed no mass change suggestive of peptide bond cleavage by hDPPIV treatment | cleavage by hDPPIV (LC/MS mass) [5]: showed no mass change suggestive of peptide bond cleavage by hDPPIV treatment | cleavage by hDPPIV (LC/MS mass) [6]: showed no mass change suggestive of peptide bond cleavage by hDPPIV treatment | cleavage by hDPPIV (LC/MS mass) [7]: showed no mass change suggestive of peptide bond cleavage by hDPPIV treatment | cleavage by hDPPIV (LC/MS mass) [8]: showed no mass change suggestive of peptide bond cleavage by hDPPIV treatment
